Data as given in patent JP2010254663A.
Like-named read-outs stand apart in the source and are kept apart here.

Legend:
[1] = target: HAMA血清タイプ1(Roche製、品番:1767275); experiment: forward sandwich ELISA with anti-hCEA antibodies and HAMA serum type 1, inhibitor at 1 ug/ml
[2] = target: HAMA血清タイプ1(Roche製、品番:1767275); experiment: as above; remark: listed apart in the source

HAMA抑制率 [1] | HAMA抑制率 [2] | Substance
39% | 61% | マウスIgG(CHEMICON製、品番:PP54) (antibody)
51% | 69% | MAK33−IgG1(Roche製、品番:1200941) (antibody)
 | 68% | Heterophilic Blocking Reagent1(SCANTIBODIES LABORATORY，INC.製、品番:3KC534−075)
